The record followed here is article doi:10.1101/2023.01.02.522444 (bioRxiv, 2023).

Experiment [1] concerns the target Isw1 (residues 69-1129) (S. cerevisiae, UniProt P38144 69-1129). Nature of the experiment: cryo-EM structure.
Experiment [2] concerns the target histone H4 (Xenopus), in the nucleosome (Xenopus, UniProt P62799 1-103). In words: cryo-EM structure.

Chain of Isw1 (residues 69-1129) (P38144 69-1129): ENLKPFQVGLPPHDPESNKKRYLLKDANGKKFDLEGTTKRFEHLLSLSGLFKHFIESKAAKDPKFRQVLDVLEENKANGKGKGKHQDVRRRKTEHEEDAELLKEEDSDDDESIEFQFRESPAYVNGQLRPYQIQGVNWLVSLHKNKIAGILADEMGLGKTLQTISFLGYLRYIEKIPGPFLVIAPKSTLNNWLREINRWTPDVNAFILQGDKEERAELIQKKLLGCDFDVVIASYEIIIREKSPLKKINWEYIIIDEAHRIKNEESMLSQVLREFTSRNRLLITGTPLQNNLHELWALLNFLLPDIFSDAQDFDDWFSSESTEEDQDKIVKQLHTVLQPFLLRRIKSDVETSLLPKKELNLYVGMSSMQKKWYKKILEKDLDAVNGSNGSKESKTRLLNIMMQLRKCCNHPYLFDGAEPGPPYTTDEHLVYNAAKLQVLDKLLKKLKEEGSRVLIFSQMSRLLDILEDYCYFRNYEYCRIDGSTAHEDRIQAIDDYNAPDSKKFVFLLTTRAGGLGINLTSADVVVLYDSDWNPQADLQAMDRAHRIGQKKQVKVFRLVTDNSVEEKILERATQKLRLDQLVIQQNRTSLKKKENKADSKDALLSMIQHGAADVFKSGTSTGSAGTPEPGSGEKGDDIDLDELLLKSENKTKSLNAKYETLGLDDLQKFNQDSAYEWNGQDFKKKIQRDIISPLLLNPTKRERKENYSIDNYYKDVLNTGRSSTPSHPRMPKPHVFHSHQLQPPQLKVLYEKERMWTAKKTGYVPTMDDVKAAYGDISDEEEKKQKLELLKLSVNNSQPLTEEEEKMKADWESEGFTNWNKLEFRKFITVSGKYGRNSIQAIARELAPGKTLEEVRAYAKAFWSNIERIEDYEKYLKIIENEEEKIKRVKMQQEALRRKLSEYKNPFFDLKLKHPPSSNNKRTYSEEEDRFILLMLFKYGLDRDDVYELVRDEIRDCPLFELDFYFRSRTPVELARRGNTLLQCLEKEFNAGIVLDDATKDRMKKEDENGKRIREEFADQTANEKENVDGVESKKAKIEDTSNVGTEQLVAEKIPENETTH

B1: Ioc3 (residues 127-749) (domain or fragment)
chain: VAPKPKPAHEQVEPALIPSNWTSVIPLLTSDFKNQYSVISRLKNPNMKPVPYAGDIIKLMAFINKFSSFFHSDLQNLSFQDFEVGLDLYPGDPNGSAAGIVKGPEDTSLLLYPDFMAIKDIVYCQDKMNLLFLSLLDLTFTENFDGKSAKKKGPLTTWENLKSSSKKVFSNPLYRLRLVAREWGYPREWRQQLPSDQDISKPKTALFEQDEQTPVVDPSHPEILTPNIYTWNANEPLPLESNPLYNREMDKNGILALKPMDRVVLLRALTDWCASHSSAIHDEIYKLTHGKKDPVFGIQTQQVPRYTIEGVDNTINQFKKLCSLIQSRYEIRSKKKHFVKQLKEGKKPDLSRKLEILKEIKAELKNAVKSEKDELLFSLYDKWVPLFEGELPDQPLANPFSERLYKLRLQEFFLGRVPHIGDFYMPRLHSYGDSLEMSTFTDLRNLQALLSKFKNNEYNAFTLFENDGQSMSAQFKLFYHDTPSLAHDVARGRNTSGKVYWYELCHDSATLLEFLEFLDYKIVKPQDEKKEGNEKEKEALNNEAHILEQKSTTDNNPSINTNPLPKDAKYNTARKKLQILKEFLSDYYFILRQFEQMKVQFADMKPGKRQLRRIQRQTVNYNT
As to B1, the binding result in experiment [1] and in experiment [2] was “binds” each time.
